Experimental findings from patent US20260028415A1 (FULL LIFE TECHNOLOGIES HK, published 2026) are described below.

Positions count from the first letter of the chain named.

B1: anti-CEACAM5 single domain antibody of SEQ ID NO: 6 (VHH)
VHH: EVQLVESGGGLVQPGGSLRLSCAASRGTFSRLDMGWFRQAPGKEREFVASSTWSGGTAYATDSVKTRFTISRDSAKTTVYLQMNSLRPEDTAVYYCAAGLSLEQHTPPYWGQGTQVTVSS
notes: tags or Fc in the assays are not described
B2: anti-CEACAM5 single domain antibody of SEQ ID NO: 1 (VHH)
VHH: EVQLVESGGGLVQAGGSLRLSCVASTRIAGMGWYRAPPGKGRELVASISEEGTTTYAVPVEGRFTVSRDNVKNMLHLQMNSLKPEDTAMYYCVARRTFPSVVEGVDYWGQGTQVTVSS
notes: Alpaca sdAb clone expressed in E. coli
B3: anti-CEACAM5 single domain antibody of SEQ ID NO: 2 (VHH)
VHH: QLQLVESGGGLVQPGGSLRLSCAVSGDRWDYYAIGWIRQAPGKEREGVSCISSSGRTTNYADSVKGRFTISRDNAKNTVYLQMNSLKPEDTAVYYCSTEFTGWDRCGFDEYDHRGQGTQVTVSS
notes: as for B1
B4: anti-CEACAM5 single domain antibody of SEQ ID NO: 5 (VHH)
VHH: EVDLVESGGGLVQAGGSLRLSCAPSGRTSSLDTMAWFRQAPGKEREFVASTNWNRGGASYADSVKGRFTISRDATKNTVYLQINSLEPEDTAVYYCAASTRGIVSDNYWGQGTQVTVSS
notes: as for B1
B5: anti-CEACAM5 single domain antibody of SEQ ID NO: 8 (VHH)
VHH: AVQLVESGGGLVQAGGSLRLSCAASGRTFSSYWLGWFRQVPGEEREFVAAISWSGSGVVTNYADSVKGRFTISRDDGNNALYLQMSNLNPEDTAVYYCAARLGTYYKDYARSGAYDTWGQGTQVTVSS
notes: as for B1
B6: anti-CEACAM5 single domain antibody of SEQ ID NO: 4 (VHH)
VHH: EVQLVESGGGLVQPGESLRLSCAASGFSFSSYAMSWVRQPPGMGIEWVAEIDSGGGSTDYAVPVKGRFTISRDNVKNTLYLQMNSLKPEDTAVFYCAKGTHADFGSWGQGTQVTVSS
notes: as for B1
B7: anti-CEACAM5 single domain antibody of SEQ ID NO: 9 (VHH)
VHH: B6 VHH with E1Q, S28T, M43K, G56D, S57R, K76E, Q112L
notes: as for B1
B8: anti-CEACAM5 single domain antibody of SEQ ID NO: 10 (VHH)
VHH: EVDLMESGGGLVQPGGSLRLSCTASGDTLDYYAIDWFRQAPGKEREGVSCISSRGGTTNYADAVKGRFTISRDNAKNTVYLQMNSLRPEDTAVYYCAAEFTGWAVCNFSRKSGEYDYWGQGTQVTVSS
notes: as for B1
B9: anti-CEACAM5 single domain antibody of SEQ ID NO: 7 (VHH)
VHH: EVQLVESGGGLVQAGGSLRLSCAASGRTFSRDVMGWFRQAPGKEREFVAVINWTDSTYYLDSVKGRFTISRENAENTVYLQMNSLKPEDTAIYYCATGIGGLYRRPSAYKYWGQGTQVTVSS
notes: as for B1
B10: anti-CEACAM5 single domain antibody of SEQ ID NO: 3 (VHH)
VHH: EVDLVESGGGLVQPGGSLRLSCAASGFTFSSYYMSWVRQPPGKGIEWVSEISSGGGSTNYAVPVEGRFTISRDNAKNTLSLQMNSLKPEDTALYYCARGSHADFNSWGQGTQVTVSS
notes: as for B1

In one assay the target is T1, human CEACAM5 expressed on MKN45 cells (human, UniProt P06731 35-685).
T1 construct: Endogenous CEACAM5 of the human gastric cancer cell line MKN45; the whole entry is named here; also called CD66e; CEACAM5-expressing MKN45 cells
T1 sequence: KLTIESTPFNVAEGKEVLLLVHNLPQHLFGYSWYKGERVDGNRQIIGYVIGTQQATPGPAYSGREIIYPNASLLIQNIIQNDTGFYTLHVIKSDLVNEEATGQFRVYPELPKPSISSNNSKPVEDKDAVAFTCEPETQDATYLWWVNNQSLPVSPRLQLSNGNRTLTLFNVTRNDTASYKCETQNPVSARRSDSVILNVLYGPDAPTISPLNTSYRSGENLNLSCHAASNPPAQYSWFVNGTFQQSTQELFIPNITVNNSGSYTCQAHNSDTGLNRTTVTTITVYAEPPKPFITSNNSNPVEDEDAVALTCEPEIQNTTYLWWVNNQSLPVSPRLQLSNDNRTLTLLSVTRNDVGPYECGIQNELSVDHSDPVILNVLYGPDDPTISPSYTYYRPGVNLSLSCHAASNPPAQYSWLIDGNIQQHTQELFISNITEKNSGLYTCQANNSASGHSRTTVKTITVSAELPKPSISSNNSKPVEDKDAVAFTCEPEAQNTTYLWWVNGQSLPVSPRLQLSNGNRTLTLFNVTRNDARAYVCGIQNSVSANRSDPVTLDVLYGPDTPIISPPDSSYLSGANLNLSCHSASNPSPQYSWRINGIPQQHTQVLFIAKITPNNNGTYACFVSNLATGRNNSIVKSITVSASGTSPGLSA
The assay is described as follows: flow cytometry on MKN45 cells, sdAb at 300 nm as printed, PE-anti human Fc secondary. For orientation: In flow cytometry, cells or beads pass a laser one at a time.
For B1, the “Geometric mean MFI” value worked out at 647 MFI.
For B2, the “Geometric mean MFI” value was found to be 292 MFI.
Consider B3, for which the “Geometric mean MFI” value came to 565 MFI.
On the same count and under the same terms, as for B4, the figure is 292 MFI.
On the same count and under the same terms, as for B5, the figure is 636 MFI; as for B6, 394 MFI.
The same measure, in the same setting: as for B7, the figure is 382 MFI.

For the next assay, the target named is T2, Human CEACAM5 A3B3 domain (human, UniProt P06731 499-685).
T2 construct: also called human A3B3 domain; not shown: The human Fc part (and any linker) implied by capture on an anti-human Fc antibody chip
T2 sequence: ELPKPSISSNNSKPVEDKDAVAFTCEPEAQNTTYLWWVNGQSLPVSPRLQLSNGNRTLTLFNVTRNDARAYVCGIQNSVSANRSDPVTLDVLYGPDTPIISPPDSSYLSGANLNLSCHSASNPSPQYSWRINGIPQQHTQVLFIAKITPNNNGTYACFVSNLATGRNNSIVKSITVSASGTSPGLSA
The assay is described as follows: SPR (Biacore T200), A3B3 domain captured on anti-human Fc CM5 chip, sdAb injected, 1:1 Langmuir. For orientation: Surface plasmon resonance follows binding to a sensor surface in real time, without labels.
Regarding B1, the Kd was 7.77 nM, the off-rate constant (koff) is 0.00126 s⁻¹ and the kon amounted to 162000 M⁻¹ s⁻¹.
The like results for B8 were, in that order, 48.9 nM, 0.0137 s⁻¹ and 280000 M⁻¹ s⁻¹.
The molecule B9 came in with a Kd of 19 nM, a koff of 0.013 s⁻¹ and a kon of 688000 M⁻¹ s⁻¹.
The like results for B2 were, in that order, 0.362 nM, 4.46e-05 s⁻¹ and 123000 M⁻¹ s⁻¹.
In turn, B3 showed a Kd of 0.533 nM, a koff of 0.000997 s⁻¹ and an association rate constant (kon) of 1.87e+06 M⁻¹ s⁻¹.
The like results for B10 were, in that order, 7.74 nM, 0.0032 s⁻¹ and 414000 M⁻¹ s⁻¹.
In the case of B4, the Kd amounted to 9.74 nM, the koff is 0.00208 s⁻¹ and the kon was determined as 214000 M⁻¹ s⁻¹.
For B5, the Kd came out at 19.1 nM, the off-rate (koff) is 0.00243 s⁻¹ and the kon was 127000 M⁻¹ s⁻¹.
In turn, B6 showed a Kd of 2 nM, an off-rate constant (koff) of 0.000311 s⁻¹ and a kon of 155000 M⁻¹ s⁻¹.
Regarding B7, the Kd came to 0.732 nM.

The target of a further assay is T1, human CEACAM5 expressed on MKN45 cells. Nature of the assay: cell-based or functional assay.
Consider B8, for which the “EC50 (read off the curve), internalization by pHrodo” value is around 20 nM.
The same measure, in the same setting: as for B2, the figure is around 20 nM; as for B4, around 20 nM; as for B7, 25 to 30 nM.

The next assay shares this target. Nature of the assay: flow cytometry on MKN45 cells, 300 nm [sic], PE-anti human Fc secondary; negative control.
Take Human IgG1 isotype (antibody): the Geometric mean MFI is 12.9 MFI.

In general, Kd refers to the concentration at which binding is half-saturated. The term koff denotes the rate constant with which the complex falls apart. The low end stands for slow dissociation, the high end for fast dissociation. Broadly, the kon is the second-order rate constant of association. A lower kon goes with slow association.
